Substitutions are numbered along the chain they refer to.
T1: mouse PAI-1 (mouse, UniProt P22777 24-401)
T1 sequence: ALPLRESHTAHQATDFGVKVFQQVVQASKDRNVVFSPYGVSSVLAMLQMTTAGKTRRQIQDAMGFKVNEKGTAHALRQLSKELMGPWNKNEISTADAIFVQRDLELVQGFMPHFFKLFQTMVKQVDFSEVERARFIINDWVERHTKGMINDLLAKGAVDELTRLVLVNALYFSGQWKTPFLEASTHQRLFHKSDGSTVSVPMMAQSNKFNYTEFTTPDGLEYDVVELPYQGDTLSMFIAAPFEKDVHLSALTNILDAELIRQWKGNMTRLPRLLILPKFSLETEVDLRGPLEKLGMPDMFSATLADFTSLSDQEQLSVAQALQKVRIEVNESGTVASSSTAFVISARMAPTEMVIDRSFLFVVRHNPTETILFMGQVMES

T2: rat PAI-1 (rat, UniProt P20961 24-402)
T2 sequence: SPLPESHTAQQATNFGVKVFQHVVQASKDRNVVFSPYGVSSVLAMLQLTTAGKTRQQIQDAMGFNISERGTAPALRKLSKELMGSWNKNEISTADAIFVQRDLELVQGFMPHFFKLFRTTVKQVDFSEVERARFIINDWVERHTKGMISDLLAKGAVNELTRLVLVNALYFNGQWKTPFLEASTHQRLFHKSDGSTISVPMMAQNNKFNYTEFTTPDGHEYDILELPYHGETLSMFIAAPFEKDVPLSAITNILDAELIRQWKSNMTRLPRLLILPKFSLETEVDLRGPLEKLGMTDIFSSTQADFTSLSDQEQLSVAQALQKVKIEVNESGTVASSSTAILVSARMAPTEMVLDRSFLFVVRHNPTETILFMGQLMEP

B1: Antibody 01 scFv (scFv)
chain: QVQLVQSGAEVKKPGSSVKVSCKASGGTFSSYAISWVRQAPGQGLEWMGGIIPIFGTANYAQKFQGRVTITADESTSTAYMELSSLRSEDTAVYYCAREKRQWLEGHFDYWGRGTLVTVSSDIQMTQSPSTLSASVGDRVTITCRASEGIYRSLAWYQQKPGKAPKLLIYKASSLASGVPSRFSGSGSGTEFTLTISSLQPDDFATYYCQQYSNYPLTFGGGTKVEIK
B2: Antibody 22 scFv (scFv)
chain: QVQLQQSGAEVKKPGSSVKVSCKASGGTFSGYAISWVRQAPGQGLEWMGGIIPTFGTANYSQKFQGRVTITADESTSTAYMELSGLRSEDTAVYYCAREKRQWLEGHFDYWGRGTPVTVSSDIQMTQSLSFLSASIGDRVTITCRASEGIYHALAWYQQKPGKAPKLLIYRASSLASGAPSRFSGSGSGTDFTLTISSLQPDDFATYYCQQYSNYPLTFGGGTKLEIK
B3: Antibody 23 scFv (scFv)
chain: B2 chain with G31S, S61A, G66S, L129P, A153S
B4: Antibody 24 scFv (scFv)
chain: B2 chain with G31S, G56V, S61A, T69S, L129P
B5: Antibody 25 scFv (scFv)
chain: B2 chain with G31S, S61A, K100R, R113Q, L129P, G149S, A153E, R171K, D191A
B6: Antibody 26 scFv (scFv)
chain: B2 chain with S16T, G31S, T54I, S61A, G85S, L129P, A153T
B7: Antibody 02 scFv (scFv)
chain: B1 chain with I54T, R152H, N214D
B8: Antibody 03 scFv (scFv)
chain: B2 chain with G31S, S61A, L129P, H152R, A153S, R171K, S198G
B9: Antibody 04 scFv (scFv)
chain: QVRLQQSGAEVKKPGSSVKVSCKASGGTFSSYAISWVRQAPGQGLEWMGGIIPTFGTANYAQKFRGRVTITANESTSTAYMELSGLRSEDTAVYYCAREKRQWLEGRFDYWGRGTLVTVSSDIQMTQSPSFLSASIGDRITITCRASEGIYHSLAWYQQKPGKAPKLLIHRATSLASGTPSRFGGSGSGTDFALTISSLQPDDFATYYCQQYSNYPLTFGGGTKLEIK
B10: Antibody 05 scFv (scFv)
chain: B2 chain with G31S, G56S, S61A, Q65R, L129P, A153Q
B11: Antibody 06 scFv (scFv)
chain: B2 chain with G31S, S61A, L129P, A153E, G221R
B12: Antibody 07 scFv (scFv)
chain: B2 chain with G31S, M48V, S61A, T126A, L129P, A153E
B13: Antibody 10 scFv (scFv)
chain: B2 chain with G31S, S61A, G85S, L129P, T141A, A153S, K224R

Columns and labels:
Test in all cases: cell-based or functional assay
mouse PAI-1 [1] = molecular target: T1, mouse PAI-1
[2] = molecular target: T3, active human PAI-1, recombinant, wild-type, non-glycosylated (E. coli) (human, UniProt P05121 24-402)
cynomolgus PAI-1 = cynomolgus PAI-1 (cynomolgus, UniProt P05121 24-402 (human entry), limits assumed)
rat PAI-1 = molecular target: T2, rat PAI-1
mouse PAI-1 [3] = molecular target: T1, mouse PAI-1; remark: listed apart in the source
[4] = molecular target: T3, active human PAI-1, recombinant, …; remark: listed apart in the source

Row | Binder | Chromogenic (IC50 in nM) mouse (mouse PAI-1 [1]) | Chromogenic IC50 ratio mouse/human (mouse PAI-1 [1]) | Chromogenic (IC50 in nM) human [2] | Chromogenic (IC50 in nM) cyno (cynomolgus PAI-1) | Chromogenic IC50 ratio cyno/human (cynomolgus PAI-1) | Chromogenic (IC50 in nM) rat (rat PAI-1) | Chromogenic IC50 ratio rat/human (rat PAI-1) | HT-1080 Exo PAI-1 (IC50 in nM) mouse (mouse PAI-1 [3]) | HT-1080 Exo PAI-1 (IC50 in nM) human [4]
1 | B1 | 28.3 nM | 8.2 fold | 3.4 nM | 1.2 nM | 0.4 fold | 208 nM | 60.5 fold | 34.5 nM | 23.9 nM
2 | B2 | 413 nM | 82.6 fold | 5 nM | 1.5 nM | 0.3 fold | 406 nM | 81.2 fold |  | 
3 | B3 | 376 nM | 229 fold | 1.6 nM | 0.5 nM | 0.3 fold | 376 nM | 229 fold |  | 
4 | B4 | 140 nM | 43.3 fold | 3.2 nM | 1.1 nM | 0.3 fold | 127 nM | 39.3 fold |  | 
5 | B5 | 172 nM | 13.1 fold | 13.1 nM | 4.6 nM | 0.4 fold | 322 nM | 24.6 fold |  | 
6 | B6 | 211 nM | 52.9 fold | 4 nM | 1.2 nM | 0.3 fold | 245 nM | 61.4 fold |  | 
7 | B7 | 553 nM | 929 fold | 0.6 nM | 1.1 nM | 1.8 fold | 530 nM | 891 fold |  | 
8 | B8 | 54.9 nM | 30.5 fold | 1.8 nM | 0.1 nM | 0.1 fold | 297 nM | 165 fold |  | 
9 | B9 | 264 nM | 39.9 fold | 6.6 nM | 2.1 nM | 0.3 fold | 340 nM | 51.4 fold |  | 
10 | B10 | 718 nM | 144 fold | 5 nM | 0.5 nM | 0.1 fold | 860 nM | 172 fold |  | 
11 | B11 | 48.2 nM | 0.6 fold | 74.6 nM | 31.6 nM | 0.4 fold | 37.1 nM | 0.5 fold |  | 
12 | B12 | 143 nM | 0.8 fold | 187 nM | 117 nM | 0.6 fold | 91 nM | 0.5 fold |  | 
13 | B13 | 334 nM | 149 fold | 2.2 nM | 0.5 nM | 0.2 fold | 296 nM | 132 fold |  | 

Source: patent US20130266566A1 (AbbVie / Abbott, published 2013)
